The text below walks through data of patent publication US20060189528A1 (EVOGENIX, published 2006).

To fix the notation:
B1: OVP I115A (Fc fusion)
chain: ETFPPKYLHYDEETSHQLLCDKCPPGTYLKQHCTAKWKTVCAPCPDHYYTDSWHTSDECLYCSPVCKELQYVKQECNRTHNRVCECKEGRYLEAEFCLKHRSCPPGFGVVQAGTPERNTVCKRCPDGFFSNETSSKAPCRKHTNCSVFGLLLTQKGNATHDNICSGNSESTQK
notes: Tested as C-terminal Fc-linked dimer with FLAG tag, from HEK 293 EBNA cells; signal peptide 1-21 processed; not shown: human Fc domain of vector pAPEX-3.Fc; C-terminal FLAG tag
B2: OVP I115M, L40S (Fc fusion)
chain: B1 chain with L19S, A94M
notes: Tested as C-terminal Fc-linked dimer with FLAG tag, from HEK 293 EBNA cells; signal peptide 1-21 processed; also called R23; not shown: human Fc domain of vector pAPEX-3.Fc; C-terminal FLAG tag
B3: OVP I115V (Fc fusion)
chain: B1 chain with A94V
notes: as for B1
B4: OVP N102D (Fc fusion)
chain: B1 chain with N81D, A94I
notes: as for B1
B5: OVP I115G (Fc fusion)
chain: B1 chain with A94G
notes: as for B1
B6: OVP I115M, F128L (Fc fusion)
chain: B1 chain with A94M, F107L
notes: Tested as C-terminal Fc-linked dimer with FLAG tag, from HEK 293 EBNA cells; signal peptide 1-21 processed; also called I115M plus: F128L; not shown: human Fc domain of vector pAPEX-3.Fc; C-terminal FLAG tag
B7: OVP I115M, R122S (Fc fusion)
chain: B1 chain with A94M, R101S
notes: Tested as C-terminal Fc-linked dimer with FLAG tag, from HEK 293 EBNA cells; signal peptide 1-21 processed; also called I115M plus: R122S; not shown: human Fc domain of vector pAPEX-3.Fc; C-terminal FLAG tag
B8: OVP I115T, K51R, R111H (Fc fusion)
chain: B1 chain with K30R, R90H, A94T
notes: as for B1
B9: OVP I115T, K51R, S167G (Fc fusion)
chain: B1 chain with K30R, A94T, S146G
notes: as for B1
B10: OVP I115Y (Fc fusion)
chain: B1 chain with A94Y
notes: as for B1
B11: OVP I115M, R122Q (Fc fusion)
chain: B1 chain with A94M, R101Q
notes: Tested as C-terminal Fc-linked dimer with FLAG tag, from HEK 293 EBNA cells; signal peptide 1-21 processed; also called I115M plus: R122Q; not shown: human Fc domain of vector pAPEX-3.Fc; C-terminal FLAG tag
B12: OVP I115D (Fc fusion)
chain: B1 chain with A94D
notes: as for B1
B13: OVP I115M, F128A (Fc fusion)
chain: B1 chain with A94M, F107A
notes: Tested as C-terminal Fc-linked dimer with FLAG tag, from HEK 293 EBNA cells; signal peptide 1-21 processed; also called I115M plus: F128A; not shown: human Fc domain of vector pAPEX-3.Fc; C-terminal FLAG tag
B14: OVP I115M (Fc fusion)
chain: B1 chain with A94M
notes: Ribosome display selected; tested as C-terminal Fc-linked dimer with FLAG tag, from HEK 293 EBNA cells; signal peptide 1-21 processed; also called 1R17; not shown: human Fc domain of vector pAPEX-3.Fc; C-terminal FLAG tag
B15: OVP I115L (Fc fusion)
chain: B1 chain with A94L
notes: as for B1
B16: OVP I115W (Fc fusion)
chain: B1 chain with A94W
notes: as for B1
B17: OVP I115T, K51R (Fc fusion)
chain: B1 chain with K30R, A94T
notes: as for B1
B18: OVP I115E (Fc fusion)
chain: B1 chain with A94E
notes: as for B1
B19: OVP I115M, F128T (Fc fusion)
chain: B1 chain with A94M, F107T
notes: Tested as C-terminal Fc-linked dimer with FLAG tag, from HEK 293 EBNA cells; signal peptide 1-21 processed; also called I115M plus: F128T; not shown: human Fc domain of vector pAPEX-3.Fc; C-terminal FLAG tag
B20: OVP I115S (Fc fusion)
chain: B1 chain with A94S
notes: as for B1
B21: OVP I115M, R122N (Fc fusion)
chain: B1 chain with A94M, R101N
notes: Tested as C-terminal Fc-linked dimer with FLAG tag, from HEK 293 EBNA cells; signal peptide 1-21 processed; also called I115M plus: R122N; not shown: human Fc domain of vector pAPEX-3.Fc; C-terminal FLAG tag
B22: OVP I115M, R122D (Fc fusion)
chain: B1 chain with A94M, R101D
notes: Tested as C-terminal Fc-linked dimer with FLAG tag, from HEK 293 EBNA cells; signal peptide 1-21 processed; also called I115M plus: R122D; not shown: human Fc domain of vector pAPEX-3.Fc; C-terminal FLAG tag
B23: OVP I115R (Fc fusion)
chain: B1 chain with A94R
notes: as for B1
B24: OVP I115M, N139D (Fc fusion)
chain: B1 chain with A94M, N118D
notes: as for B1
B25: OVP I115N (Fc fusion)
chain: B1 chain with A94N
notes: as for B1
B26: OVP I115M, R122E (Fc fusion)
chain: B1 chain with A94M, R101E
notes: Tested as C-terminal Fc-linked dimer with FLAG tag, from HEK 293 EBNA cells; signal peptide 1-21 processed; also called I115M plus: R122E; not shown: human Fc domain of vector pAPEX-3.Fc; C-terminal FLAG tag
B27: OVP I115M, F128I (Fc fusion)
chain: B1 chain with A94M, F107I
notes: Tested as C-terminal Fc-linked dimer with FLAG tag, from HEK 293 EBNA cells; signal peptide 1-21 processed; also called I115M plus: F128I; not shown: human Fc domain of vector pAPEX-3.Fc; C-terminal FLAG tag
B28: OVP I115K (Fc fusion)
chain: B1 chain with A94K
notes: as for B1
B29: OVP I115M, R122G (Fc fusion)
chain: B1 chain with A94M, R101G
notes: Tested as C-terminal Fc-linked dimer with FLAG tag, from HEK 293 EBNA cells; signal peptide 1-21 processed; also called I115M plus: R122G; not shown: human Fc domain of vector pAPEX-3.Fc; C-terminal FLAG tag
B30: OVP I115M, F128S (Fc fusion)
chain: B1 chain with A94M, F107S
notes: Tested as C-terminal Fc-linked dimer with FLAG tag, from HEK 293 EBNA cells; signal peptide 1-21 processed; also called I115M plus: F128S; not shown: human Fc domain of vector pAPEX-3.Fc; C-terminal FLAG tag

Positions count from the first letter of the chain named. Names and notes keep the numbering of the source.

One assay has as its target T1, RANKL (human, UniProt O14788 140-317, limits assumed).
T1 construct: also called Rank ligand
T1 sequence (looked up): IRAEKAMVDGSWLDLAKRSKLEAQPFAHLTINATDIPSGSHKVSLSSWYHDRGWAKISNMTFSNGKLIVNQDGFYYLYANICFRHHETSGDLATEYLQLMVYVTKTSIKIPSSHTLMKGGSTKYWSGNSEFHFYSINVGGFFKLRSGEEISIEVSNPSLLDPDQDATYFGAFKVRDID
Kind of assay: ELISA on coated RANKL, Fc-linked dimers; EC50 ratio to OPG(22-194).Fc wt; increase in binding (lower EC50). As for the experimental part: (§1) Purified mammalian-expressed OVP proteins are tested for binding to RANKL and TRAIL by ELISA. Wells are coated with RANKL at 5 μg/mL or TRAIL at 10 μg/mL in PBS O/N at 4° C., rinsed with PBS, blocked with 0.5% casein in PBS at room temp for 2 h, then rinsed again with PBS. Concentrations of OVPs to be tested are normalised to around 10 nM and then 50 μL applied to the antigen-coated wells in serial doubling dilutions over 6-7 wells for 1 h. […] All washes in between binding incubations are 3 times in PBS/0.05% Tween, then 3 times with PBS. Detection of bound OVPs is achieved with incubation of 50 μL anti-FLAG at […] for 20 min then 50 μL goat anti-mouse-peroxidase conjugate (BioRad) at 1:1500 for 20 min. TMB is used as enzyme substrate and then binding signal is measured at A_{450 nm}.
On the technique in general: ELISA stands for enzyme-linked immunosorbent assay.
With B1, the “RANKL fold change cf wt” value was 2.25 fold.

For the molecule B2, the “RANKL fold change cf wt” value is 1.1 fold.

For the molecule B3, the “RANKL fold change cf wt” value turned out to be 1.5 fold.

Take B4: the “RANKL fold change cf wt” value amounted to 1.1 fold.

As to B5, the “RANKL fold change cf wt” value came to 2.1 fold.

Consider B6, for which the “RANKL fold change cf wt” value is 1.2 fold.

As to B7, the “RANKL fold change cf wt” value was found to be 1.5 fold.

As for B8, the “RANKL fold change cf wt” value came out at 1.5 fold.

As to B9, the “RANKL fold change cf wt” value was 1.5 fold.

B10: the “RANKL fold change cf wt” value was 1.1 fold.

Regarding B11, the “RANKL fold change cf wt” value was found to be 2.5 fold.

Consider B12, for which the “RANKL fold change cf wt” value was 1.5 fold.

Consider B13, for which the “RANKL fold change cf wt” value was 1.2 fold.

On to B14, for which the “RANKL fold change cf wt” value came out at 1.2 fold.

Take B15: the “RANKL fold change cf wt” value amounted to 1.75 fold.

A further assay deals with T1, RANKL. The assay is described as follows: ELISA on coated RANKL, Fc-linked dimers; EC50 ratio to OPG(22-194).Fc wt; reduction in binding (higher EC50). As for the experimental part: as §1
In the case of B16, the “RANKL fold change cf wt” value turned out to be 1.4 fold.

Turning to B17, the “RANKL fold change cf wt” value was 1.75 fold.

Regarding B18, the “RANKL fold change cf wt” value turned out to be 2.25 fold.

For the molecule B19, the “RANKL fold change cf wt” value stood at 3.3 fold.

Regarding B20, the “RANKL fold change cf wt” value is 1.4 fold.

Turning to B21, the “RANKL fold change cf wt” value was found to be 1.1 fold.

For B22, the “RANKL fold change cf wt” value is 6 fold.

On to B23, for which the “RANKL fold change cf wt” value is 2.3 fold.

For B24, the “RANKL fold change cf wt” value was 1.75 fold.

With B25, the “RANKL fold change cf wt” value came to 1.1 fold.

Consider B26, for which the “RANKL fold change cf wt” value was found to be 1.2 fold.

In the case of B27, the “RANKL fold change cf wt” value was 2.1 fold.

On to B28, for which the “RANKL fold change cf wt” value is 60 fold.

In the next assay the target is T2, TRAIL (human, UniProt P50591 114-281).
T2 construct: also called TNF-related apoptosis inducing ligand; recombinant human TRAIL (R&D Systems)
T2 sequence (P50591 114-281 limits assumed): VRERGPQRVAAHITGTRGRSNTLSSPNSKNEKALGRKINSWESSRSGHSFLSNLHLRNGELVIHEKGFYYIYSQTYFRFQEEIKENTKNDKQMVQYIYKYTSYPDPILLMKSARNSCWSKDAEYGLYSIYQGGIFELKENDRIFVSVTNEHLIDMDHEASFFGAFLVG
Kind of assay: ELISA on coated TRAIL, Fc-linked dimer. As for the experimental part:
as §1
As to B28, the binding result is “no binding”.

Another assay deals with T2, TRAIL. The assay is described as follows: ELISA on coated TRAIL, Fc-linked dimers; EC50 ratio to OPG(22-194).Fc wt; printed in parentheses (reduction in binding, higher EC50). As for the experimental part: as §1
B4: the “TRAIL fold change cf wt” value came out at 1 fold.

Take B17: the “TRAIL fold change cf wt” value is 0.8 fold.

For the next assay, the target named is T2, TRAIL. The assay is described as follows: ELISA on coated TRAIL, Fc-linked dimers; EC50 ratio to OPG(22-194).Fc wt; reduction in binding (higher EC50); # by extrapolation. As for the experimental part:
as §1
Consider B5, for which the “TRAIL fold change cf wt” value was greater than 125 fold.

Turning to B6, the “TRAIL fold change cf wt” value is 250 fold.

Consider B23, for which the “TRAIL fold change cf wt” value was 50 fold.

Consider B25, for which the “TRAIL fold change cf wt” value was 390 fold.

Take B27: the “TRAIL fold change cf wt” value is 250 fold.

A further assay has as its target T2, TRAIL. The assay is described as follows: ELISA on coated TRAIL, Fc-linked dimers; EC50 ratio to OPG(22-194).Fc wt; reduction in binding (higher EC50). As for the experimental part:
as §1
As to B1, the “TRAIL fold change cf wt” value worked out at 2.5 fold.

Consider B2, for which the “TRAIL fold change cf wt” value was greater than 250 fold.

Regarding B3, the “TRAIL fold change cf wt” value is 4 fold.

For B16, the “TRAIL fold change cf wt” value was determined as 5 fold.

Take B29: the “TRAIL fold change cf wt” value is 12.5 fold.

In the case of B18, the “TRAIL fold change cf wt” value was greater than 250 fold.

Turning to B7, the “TRAIL fold change cf wt” value was 3.5 fold.

As to B8, the “TRAIL fold change cf wt” value turned out to be 7.5 fold.

Regarding B19, the “TRAIL fold change cf wt” value was 7 fold.

Turning to B9, the “TRAIL fold change cf wt” value was determined as 15 fold.

Take B10: the “TRAIL fold change cf wt” value amounted to 3 fold.

Turning to B20, the “TRAIL fold change cf wt” value came to 3.1 fold.

Consider B21, for which the “TRAIL fold change cf wt” value is greater than 250 fold.

Regarding B22, the “TRAIL fold change cf wt” value is 23 fold.

B11: the “TRAIL fold change cf wt” value amounted to 3 fold.

In the case of B24, the “TRAIL fold change cf wt” value is 60 fold.

On to B12, for which the “TRAIL fold change cf wt” value was greater than 125 fold.

For B13, the “TRAIL fold change cf wt” value turned out to be 2 fold.

For the molecule B14, the “TRAIL fold change cf wt” value stood at 25 fold.

On to B30, for which the “TRAIL fold change cf wt” value turned out to be 50 fold.

B26: the “TRAIL fold change cf wt” value is greater than 250 fold.

Consider B15, for which the “TRAIL fold change cf wt” value was 4.3 fold.

For the next assay, the target named is T1, RANKL. The assay is described as follows: ELISA on coated RANKL, Fc-linked dimers; EC50 ratio to OPG(22-194).Fc wt; printed without parentheses. As for the experimental part: as §1
With B29, the “RANKL fold change cf wt” value turned out to be 1 fold.

B30: the “RANKL fold change cf wt” value is 1 fold.
